# Test: protease stability score; higher = more stable; yeast display proteolysis, trypsin and chymotrypsin;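 also: relative to predicted unfolded state with 0 unfolded-like and 1 meaning tenfold more protease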
row,Sequence,protease stability score
1,TEEEQLLKEFAELYLRNWWTGNEDKLLELADPHARSVVNGREIHGRENMYKLIRLWLERFKNIQIHYDDVKFQGNYVKLHGHMTVGDKTTHIIIHILVIDGVIKELSLEVN,1.56
2,NEEEETARHAIEEFVRVLMTGDWRTLERLLDPNYRIYQGDKTYIGMEHFLELWVHILDRIKNLRLEIHSYEIQGEKVHIHTILNYDGRDIEYVIIQIKINGRWLLHSLHFL,1.24
3,DDIKEESRHAHEEMLKIIKTGNEEVFEEMADPDVRIILDINGRDVRSHGREEAVRFWHEFMERVKGLRIHTDDLIVVGDKIELRIHSRYNGVRTHIRMIVSKFDGVWLLTELEIRVV,1.75
4,SEIDREHHELLTLLVHLWLTGDWKTFKKYFDPNVRLHQGDFDDHGWEALEETERKHGIEIKDLELHEFHVQGEKIIINLHVVIRQGDKTYRKDMRITYVVVNGRVTSIRMEVR,0.877
5,DEIVEMVREIAEEILHAELTGDEDKFKKLIDPNVRLQINGKDIHGMEDFRKWNEEWRIHHIEVKHLDIFEGHSRMDGKLDGTINGQRRNLKTILEIKVVDGRVKEITIHVL,1.12
6,DERKTISHMIEEIWHRIIRTGDEEAFIKYFDPHARIHVDGKEIHGREKVLEFLIEIFRHLRVEDYTVHSYNTQGDKIHIDTRMDGEVDGRREVNQTRIIATKINGQWILTEVHLS,0.36
7,SDHDEISHDMFRLWLELHLTGDPKVLADLFDPRVRLILEVGDKRIEVHGREEFERWYREEMRHLRIEHIHIEHVEVQGEKVHAIIEVHTHVNGRRHIHKTHITMDFIDGRFKRMKIDVK,2.14
8,DRHERKKVAKDFNEALETNDHEQLMEQMDPNARIKYGDKHYHGREDLRRFWKKLVDSVDHITVDKMQVRGEEVVVLAKAESNGRNETFRLVMEFHNGRIKFVRKDTP,1.05
9,DEDTRDAEHISRMMLHAFITGDERLIEKNADPDTRIDVNGVDYHGREEMVKLFKRWLDELGVNHMEIKETTTHVYDGRVEVVLHLHVDYNGRRHHLIIIIINDKFDGQWRIRSLEFEER,1.37
10,DEDEERAQEMAKRLEDSLHTGDEETHQNLMDPHMRLRVNGKEFHGRENILHFLREWRIHHLDVRLRHIDDRGEYIIINSEVRVDGNIDGKRTELHTISEIILVKVDGRWMTDEFRFH,0.72
11,DEEEKLRQWIFHLWIKILETGDEKLLEELADPHVLHRFDGVHAHGRERMSSWLRELIERLGVKVHELNSIHIYGDKARINFQVHVDGQRKEMTIHMLMVDGKIKSTQLDRREH,1.09
12,DKEDEERKRWEERMLQAITTGDEKTLEDLIDPNARYEINGRERHGREDLLKEFSKIKNVRIELRIHHVRFYDGQLEIDLRLILHIDGVDLRHETRIHAQKYDGVWYIKDITFH,1.02
13,DEEEKLSQHMLKEWFEWTITGDEDTLAKMADPNVRVHIGDYHLHGRESMLKWLHDFIRDLGVERIDFHLRDRTVQGNKARLHVVENVNGKSTETEVIIDVIDGRMKLVEIRIR,0.198
14,EEDHEIVEKMLKMLFHSWHTGDEKLFKTLVDPNAKFVIGDKTFHGREFYKFLHDRFDHFRMHDITVRKVEHFDGRLIAHVEIHWRLHIGDKTETEVTESHIIIEKIDGKWRNRSIIVH,1.76
15,DEDEEIARKIMEMLIEELRTGDEEKSTENADPNVRVHFNGKDLHGWEEFSRLASKFKGLRFILRRMDVFNGRVVIDGEERWDGRTHRVILHIEKVNGRWRIKQVDIH,1.63
16,DEEEEILRRFIEEWLYAELTGDFHVLHELFDPNVRIEINGVDKHGMHIVIKELLEFYRRVKNLRVEFELRDEKRFDGVVIIIGVRRISINGQTHEEETILVIVKVNGRWVMKEIWFN,1.64
17,DDQDTNSELAVHLWILSMITGDERFLNEYMDPNAKVHVGDKEYHGREAYEFLRHRVDHIRESHIRRVHTQGNKVRVDVEFRIEVDGREINVRTELVLIKINGQWRFTEFTFK,2.22
18,LEEKDEVHHIVDRLFKVLMTGDFEILRHLLDPDDRLKIDINGRQIDLHGREEVVHWVIHELRELRIELRVKRVHHTENHYVADTRLHIRQGDKEFVHETEWRILIIDGKNKEWRIIVH,1.38
19,SETERYNEELLTKWFHAEHTGNFEMLQRLIDPHARIDINGVEHIGWRQFTKSLEDFGIDHIHHLKIDHFRVFNGRLFIDVTTDGTINGQRHKTKVLIRIVLYNGVIHEMSIEWV,1.33
20,DTEQKHVLHLLDEVLHNILTGDWDRIDELMDPNVRVIIGEWDHHGRSYFRELHHLLMLKLGVDHRHIKIQDKDAQGEYAVAHTHLELRIGDKRETYQTRLIVSVVNGKIEEIRIHIG,0.877
21,HDLEKLVKFWYELWLRLLLTGDEEIFSHLADPNARLEVDGVEFVGREQVLKDLKRRMEEMRLTSMIITHVDWQGEKNRTEGITHGRINGVDITSETHLVLVIVNGRIRSIRIEIR,1.54
22,SEHEHSSRIAIELLLKTLKTGDERKIEENFDPNVRLIFEGRHIVGREEVFQHIHHLAHELRIEDMKIRRVEHVNGRIHIDLHVVIEINGQRIETDSHMVILKIDGKWKIELLEWR,1.61
23,SEEEKLSRELSKLILHYLHTGDWDQITELADPNVRIHDTINGRDNDNHGWEMLIALMEQLGVDVRRFHHIRVIGDKVHMEVELNFNGRTVHAEWTFKVVDGRMKSIEIRTK,1.34
24,SEDEEYAKNVDKIMRESLMTGDEDSVERMFDPHAKVIVGDKEYHGREEMVRHIKWFLEHARIRDLRMRDVRIYGDKIEIDVEVDIDVNGKRIQRKEVIYVVKVNGKWIVEYIEIK,1.54
25,SELEELMHKFAKLFIHLWETGNEELLTKMADPNTRLIINGREVIGMERLLEVFHYIKTEIRLDTMRLEHIDWQGNKAHSHTRLHGEFNGRRHEDESEIHIRVIDGRVHTFEIRFK,1.2

row,Sequence,protease stability score
1,DEEEEHWKHIAKEYLDNFRTGDWKNFMDNADPDYRFILSQGNKEDNHHGMHFFVEWILRFLKKFKNATFVLRHFSIQGNKIHMELDITVGDKRIDTKINIEIIDGVVHTIEIRLD,0.821
2,DEEKKDIKHWLEKWITDTRTGDEEEILKMLDPNVRTEQGEFELHGRDALKHYIDRFDHIHEVDLEVKHVTEQGDKLHIKGTLRMDGIVDGVRRTFYFRTILIVRKIDGRWAVSRVILL,2.32
3,SEDEHELREFVNRYLHAMKTGDEDMLRDLLDPHVRFLIDGKNYHGREWVVAIFREFGIDRVEFELKDSEVQGDKVHIDGRVHINGQERSTEFRLEKYNGKWFLREEHYH,1.5
4,NEMHDFAKLAIELLLKSLKTGDEHTLEHLLDPNVRMNIDGRRWHGRENWVKRVHDLGITTRDFKLTDVKNQGNKVHIDGHAVEEVNGQRIERRVEIISVKIDGKWEIEEIRIE,1.02
5,DEDTHWIRDALRRYEEMLRTGDEDLFRRLFDPHVRVEINGQENHGMESILKLYRDLVEHLGIKHVQEVELEDVNMIDGVIILHIRVRVRFDGKHETIRMNVVAYKVNGQWRLHELKEG,1.47
6,DEEERLLEELARLFLHLWRTGDEDTMLHLADPNTRSRINGVEQHGMELTNKFLEELLRHIRIKHLKITHSYAFDGRVFMHTLMHRTVDGKEETVWVEIILVVFNGKLKEYEVRFK,1.3
7,TEEEEKSEHLIRLLLHILTTGDEDTYSWLLDPNAKLTFNGVEFHGREDLRRFWEEHLHRLGVDHRDIKDLKRQGDKVIIHNKIHVNGRTIHQEVEIEVINGKAKFNTVILE,0.412
8,DEHLEYVREIARLFWQLLSTGDEENLRKLFDPNARLDVNGQEFHGREEIIIFLRHWRMRSKDIRIHHVNVQGEKMEVDIHTDLEFEVGDFKYEEHTRVEIIVEKINGRWLVRHVKIR,0.437
9,DDDQKEMERFVREFVHSFMTGDEENIRRLADPNARTYVNGKLRHGMDNFLHLWRQIRIDIQHVKVDDMHLVNGRIYIRVTVHGIFTFDGVHVRDEKDQHWELHVVDGRAKYISIHVH,1.62
10,DDREEKIKRAWETFVHNVRTGDEDSNEELADPNVKVLFNGREFHGMEQLSKFFKHLRVHDFVLKDIRVVGDKVHVEGLVDGEINGKRELTTMHMVFIKFNGRWIIQSVEFK,1.53
11,DEEEIALKRIVELWLEVIETGDERITEHLLDPRARFEFENHSRHGRKELTRWMTQLGIKYLDLHRMHIRVFDGRLHVHIDGTEIYDGVRRKSEIRMDVLKVDGKWLVEEYSIRFK,1.25
12,GEDEHLAKRLLDLLIELFHTGDWDFISMLADPHVKLNVNGVQYHGRHDVTKLVHDEAEELRVHIQIHKVDWVGDKVHVDTRLVVNIDGQEHRTKTHIDMIVVNGRLNSMRIEIR,1.19
13,DETEEMVREMAHLFLHLWITGDEEIIKHLLDPSVRLHINGVDNHGRENALEVVHRILKELRLRHLHIHEVHIINGVIHNNIRLDIEQGDKRRILEIEVILVVWNGKIKSIEVRLK,1.51
14,HEEEHDLKEVIRLFLELIDTGDEDVLERLADPNMRVIQGDKTIHGREEVRRTMQEDAKRIDHFEFRLRRVRVINGRLEVDGEFIERAEGHEFRSRVNIMLVKVNGRWVLKIIELR,1.65
15,SEDHELVHRFTHFFLRMYFTGDEKEMEDLLDPNTRILWNGKEFHGREEVIEALRYIRSHARIRDFTIHSFEIFDGRAKMDTREHGEIDGRLRTFTLRLHILKVNGRWQFQEIQIE,2.12
16,SEETEYLRLAIELILNETRTGDEHTFMENADPDAKLNFNGVHLHGMEEVTRRMHELWEELRIRHFELHDVSHVDGRLYVHIRLDVDVNGQKRTFRSEIVSEKINGKWYYKYMTIV,1.27
17,DDHKKRVDHLLRELLHHWRTGDFEHIYKLADPHVRFHIQIGEFHHEAVGWDEVVRLIQTHLDQLGVDHLRIRRVKSQGDKLYIETESYIGDFRIEFHIIWIVVNGRLKEQRMHIHEG,1.45
18,NESEELYRIALELKRETDKTGDEEIFRKLMDPSTRLEVDGRIWHGREAVEVFIRRFDHLHRFEVKDTRVFDGQVQIEGELDSTVGDKRLNVHIEVFAIKFDGRWRLKSVRVE,1.58
19,REEEQHAERFTKLFIEAFETGDWKELSRLLDPHARMEWNGRVHHGMEQIVEVLLKQFHDLGFRIEHVRIHDIRVQGEKIKVDVDIDGIVDGRREHWKVTLIILKVNGRWLTKEIEYR,1.31
20,SEDEEEATHLSRVLIELLKTGDEEMLEHLADPNDRNDFNGRVKHGRELVTKMLRKLMTDLGIDHIEHVTLRRLEVQGEWVKFNFEIIGRVNGRELSFRVRFIMEKVDGKWRLSERHTI,1.71
21,TEEERDTKIAVDLFEEYSRTGNEDNMRELADPNVRLKINGVDYVGWKHMTKLLNHWRVKTVNIRHVEIQGDYARSDVEEEVLINGKEDRRTSRLILFKVNGRWIIKSLEFD,1.28
22,DEEHHNAREMLKLFLDFMQTGDWESHLEMADPNVKVIIDGQEFIGRESSERLIREIRIKRHHLEEERIEVQGDKAIVRLRGRRDGNVNGVETETEVHIRIHFKKIDGRWVMTSVHIEVV,1.75
23,NERKKFIEELARLYFKWWLTGDFENLLRNADPNTRIDVNGREIIGREKFVEELREHVDKFKNIREDLHDMDLQGDKVILHIRMNVDGKTIEVRVEIFVINGQIRSESWRFE,1.34
24,DERHEHTHELMRLLIEAFVTGDERLSEELADPHTRLHVNGVHNWGRERFVEVVRRLWSQVKNAKWTLRDFHVQGDKNEVVGDVHVDGQTIHVRFIFFVFNGRLESEEIRVH,2.4
25,DEEEEDVRRAVEIWERSLRTGDEHEVKRFVDPHTRLEVDGREFHGREQFIEVMRHWRFRHFQIRDFRVIDGRADVDAISEVDYNGRRFEVKTIIIVIKINGRWVLHSLNIR,1.63

# Source: the NTF2 design screens of Basanta et al. (2020)
